Test results reported in the supplement of paper PMC7125110.
± gives the standard error. For some assays here: Variants at the floor of the assay were thinned out.

B1: glmS ribozyme (parent)
chain: AUAAAAGCGCCAGAACUACAGAAAUGUAGUUGACGAGGAGGAGGUUUAUCGAAUUUUCGGCGGAUGCCUCCAAA

Columns and labels:
Settings in all cases: with glucosamine-6-phosphate
glucosamine-6-phosphate [1] = variants of: B1; experiment: kcat; higher = faster cleavage; RNA array
In short: (§1)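 E. coli RNA polymerase transcribed barcoded ribozyme variants in situ on sequenced MiSeq chips, which were tracked via a hybridised Cy3 probe at 37 °C. Tiles were imaged over ~14 h after glucosamine-6-phosphate (40 μM to 10 mM) in HEPES/KCl/Mg(OAc)2 buffer was flowed in. Normalised per-tile medians were fit to one- or two-exponential decays for kobs, and kcat and KM came from weighted Michaelis–Menten fits.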

glucosamine-6-phosphate [2] = variants of: B1; experiment: KM; higher = weaker cofactor use; RNA array
In short: as §1

glucosamine-6-phosphate [3] = variants of: B1; experiment: self-cleavage kobs at 640 uM GlcN6P; higher = faster cleavage; RNA array
In short: as §1

glucosamine-6-phosphate [4] = variants of: B1; experiment: self-cleavage kobs at 2500 uM GlcN6P; higher = faster cleavage; RNA array
In short: as §1

glucosamine-6-phosphate [5] = variants of: B1; experiment: self-cleavage kobs at 10000 uM GlcN6P; higher = faster cleavage; RNA array
In short: as §1

glucosamine-6-phosphate [6] = variants of: B1; experiment: self-cleavage kobs at 40 uM GlcN6P; higher = faster cleavage; RNA array
In short: as §1

glucosamine-6-phosphate [7] = variants of: B1; experiment: self-cleavage kobs at 160 uM GlcN6P; higher = faster cleavage; RNA array
In short: as §1

| Variant | kcat (glucosamine-6-phosphate [1]) | KM (glucosamine-6-phosphate [2]) | self-cleavage kobs at 640 uM GlcN6P (glucosamine-6-phosphate [3]) | self-cleavage kobs at 2500 uM GlcN6P (glucosamine-6-phosphate [4]) | self-cleavage kobs at 10000 uM GlcN6P (glucosamine-6-phosphate [5]) | self-cleavage kobs at 40 uM GlcN6P (glucosamine-6-phosphate [6]) | self-cleavage kobs at 160 uM GlcN6P (glucosamine-6-phosphate [7]) |
| --- | --- | --- | --- | --- | --- | --- | --- |
| U65G C70A | 0.000185 ± 1.6e-05 s⁻¹ | 825 ± 210 µM | 7.93e-05 ± 1.6e-05 s⁻¹ | 0.000183 ± 6.7e-05 s⁻¹ | 0.000167 ± 2.7e-05 s⁻¹ |  |  |
| G51A G59U | < 1e-05 s⁻¹ | 157 ± 36 µM | < 1e-05 s⁻¹ |  |  | < 1e-05 s⁻¹ |  |
| U65A G66U | 0.00046 ± 4.8e-05 s⁻¹ | 3170 ± 620 µM | 7.65e-05 ± 9.6e-06 s⁻¹ | 0.00023 ± 3.3e-05 s⁻¹ | 0.000342 ± 3.1e-05 s⁻¹ |  |  |
| G44U U57G | < 1e-05 s⁻¹ |  |  | < 1e-05 s⁻¹ | < 1e-05 s⁻¹ | < 1e-05 s⁻¹ | < 1e-05 s⁻¹ |
| U31A U56G | 0.0146 ± 0.0054 s⁻¹ | 2950 ± 1500 µM | 0.00335 ± 0.00098 s⁻¹ | 0.00579 ± 0.0015 s⁻¹ | 0.0132 ± 0.0039 s⁻¹ | 0.000249 ± 5.8e-05 s⁻¹ | 0.000532 ± 0.00021 s⁻¹ |
| A14C G32U | 0.0014 ± 6.9e-05 s⁻¹ | 3610 ± 300 µM | 0.000206 ± 3e-05 s⁻¹ | 0.000576 ± 7.9e-05 s⁻¹ | 0.00103 ± 0.00012 s⁻¹ |  | 6.08e-05 ± 2.1e-05 s⁻¹ |
| G13C U69A | 2.51e-05 ± 9.3e-06 s⁻¹ |  | 4.85e-05 ± 2.3e-05 s⁻¹ |  |  |  |  |
| A12G C68U | 0.000271 ± 1.9e-05 s⁻¹ | 2400 ± 390 µM | 5.55e-05 ± 6.8e-06 s⁻¹ | 0.000137 ± 1.5e-05 s⁻¹ | 0.000219 ± 1.5e-05 s⁻¹ |  | 3.11e-05 ± 1.2e-05 s⁻¹ |
| A52G C71U | 0.00186 ± 0.00014 s⁻¹ | 3440 ± 380 µM | 0.000293 ± 2.7e-05 s⁻¹ | 0.00078 ± 0.00015 s⁻¹ | 0.00138 ± 0.00012 s⁻¹ | 2.74e-05 ± 6e-06 s⁻¹ | 7.83e-05 ± 8.6e-06 s⁻¹ |
| U55G G66A | 0.0134 ± 0.004 s⁻¹ | 1790 ± 770 µM | 0.00303 ± 0.00072 s⁻¹ | 0.00661 ± 0.0022 s⁻¹ | 0.0124 ± 0.002 s⁻¹ | 0.000461 ± 7.7e-05 s⁻¹ | 0.000877 ± 0.00021 s⁻¹ |
| A14U G66U | 0.000298 ± 3.6e-05 s⁻¹ | 2140 ± 550 µM | 6.34e-05 ± 1.1e-05 s⁻¹ | 0.000175 ± 2.9e-05 s⁻¹ | 0.000243 ± 2.6e-05 s⁻¹ |  | 4.39e-05 ± 1.8e-05 s⁻¹ |
| G32U G40A | 0.000344 ± 5e-05 s⁻¹ | 3450 ± 950 µM | 6.33e-05 ± 6.7e-06 s⁻¹ | 0.000131 ± 1e-05 s⁻¹ | 0.000267 ± 1.9e-05 s⁻¹ |  |  |
| A12C U46A | 0.00133 ± 0.00029 s⁻¹ | 2440 ± 900 µM | 0.000302 ± 4.8e-05 s⁻¹ | 0.000533 ± 9.6e-05 s⁻¹ | 0.00122 ± 0.00017 s⁻¹ |  | 0.000101 ± 2.8e-05 s⁻¹ |
